Sequences and labels used below:
B1: Endo-Si T190Q/D241Q (protein)
chain: MNKRLLVKRTFGCVCAAAILGVAPLSHPTIVEAREELKMPNGLEQSIADVEAKIDALTYLSKNSKDEFKHSMYEIPSNREHKPVSPKQALQNAKKADAQAERLAKMTIPKKEELKALEGPLYGGYFRTWQDKTSDPTETNKVNSFGELPKEVDLAFVFHDYTKDYSLFWEELATKQVPKLNKQGTRVIRQIPWRFLSGADHSDISADKEKFPNTEAGNKALAKAIVDEYVYKYNLDGLDIQIERDSVPKVNDKEDPEALARTVEVFKEIGKLIGANGADKSRLLIMDTTYTAEENPLIKETAQYLNLLLVQVYGFSGENGNYLHHKNILDETSSMEGRWQGYSKYIRPEQYMVGFSFYEEKDFNNRWKDINEEDPSDPHIGEKIQGTRAERYAKWQPKTGGLKGGLFSYAIDRDGVAQPKQKTEHPELDKIVKSEYKVSKALKKLMMTDDQYQPIDQSDFPDKALRESIIKQVGTRRGDLERFKGTLRLDNPEIKDLTGLNKLKRVAKLELINLPKITKIDKDDLPQNLKPLTDNQKSNLEIKGTYDDSKLYKDIPAFDLVISGLSGLESLDISGHQRDTLSGIDASTLPSLKAINISDNHFDLAQGTENRHILDTILATLAKNGASTASFDKQKPKGLYPESYSTAPLHLQVGQGKINVIDDLIFGTRTNQNTLINTENDFEAYKEQTIQGKPFIAPDYLYDNFKVSYKEYSASIVDSTLAETTDKTIDTAKAETYQVTVSNKDGKTVHSVKVIVGDEKPMMVNLAQDAKIIGTDNMTQSAKVFDGQKDQFLLSWNKDSSVIFELKTPGTAKHWRFFDDGKNDSVTLSVFKGDASNFETEKDKAENWVEITKDSRKNDDKVFSSPLEVDNAKYLKVTIKKEAKYIYFNELQILGYPGVVAKKTADDLRPTEADKSDDKSDKNDTEAK
modifications: Amino acid sequence of Endo-Si T190Q/D241Q
B2: Endo-Si D241Q/Q311L (protein)
chain: B1 chain with Q190T, Q311L
modifications: Amino acid sequence of Endo-Si D241Q/Q311L
B3: Endo-Si D241M (protein)
chain: B1 chain with Q190T, Q241M
modifications: Amino acid sequence of Endo-Si D241M
B4: Endo-Si T190Q/D241M (protein)
chain: B1 chain with Q241M
modifications: Amino acid sequence of Endo-Si T190Q/D241M
B5: Endo-Si D241Q (protein)
chain: B1 chain with Q190T
modifications: Amino acid sequence of Endo-Si D241Q
B6: Endo-Si D241Q/E360Q (protein)
chain: B1 chain with Q190T, E360Q
modifications: Amino acid sequence of Endo-Si D241Q/E360Q

Substitutions are numbered along the chain they refer to. Names may count otherwise.

The first test deals with (Fucα1,6)GlcNAc-mAb2. In words: Transglycosylation activity with sugar chain oxazoline [N3-PEG(3)]-MSG1(9)-Ox as donor. The format is biochemical. Conditions: 1 h; donor [N3-PEG(3)]-MSG1(9)-Ox (8 eq.), enzyme 1.25 μg, 28° C., pH 7.5. The method, then: Transglycosylation activity was evaluated as follows. […] A sample was taken from each of the reaction solutions at 1, 2, 4, 6, and 24 hours after initiation of the reaction and analyzed for protein by a fully automated electrophoresis system as mentioned above. In the chromatogram obtained, an unreacted product and transglycosylated molecule, mAb2-(MSG1-N3)2 were confirmed as discrete peaks. The transglycosylation rate was calculated based on the peak-area ratio between the unreacted product and the transglycosylated molecule in accordance with the following expression.
Transglycosylation rate (%)=[[peak area of mAb2-(MSG1-N3)2-derived H chain]/{[peak area of (Fucα1,6)GlcNAc-mAb2-derived H chain]+[peak area of mAb2-(MSG1-N3)2-derived H chain]}]×100
Similarly, the transglycosylation rates of individual Endo-Si mutant enzymes at each time period for a reaction were calculated (Table 5).
With B1, the Transglycosylation rate is 26.6%.
The molecule B2 gave a Transglycosylation rate of 5.7%.
B3: the Transglycosylation rate came to 98.8%.
Regarding B4, the Transglycosylation rate worked out at 43.5%.
B5: the Transglycosylation rate is listed as 75.2%.
On the same count and under the same terms, the figure for B6 is 73.5%.

Still in this test, the particulars now being: 2 h; donor [N3-PEG(3)]-MSG1(9)-Ox (8 eq.), enzyme 1.25 μg, 28° C., pH 7.5.
B1 gave a Transglycosylation rate of 48.4%.
As to B2, the Transglycosylation rate was 11.6%.
The molecule B3 returned a Transglycosylation rate of 98.9%.
The molecule B4 returned a Transglycosylation rate of 64.1%.
With B5, the Transglycosylation rate was 97.0%.
For the molecule B6, the Transglycosylation rate came to 96.8%.

The same test, now with this note: 4 h; donor [N3-PEG(3)]-MSG1(9)-Ox (8 eq.), enzyme 1.25 μg, 28° C., pH 7.5.
Turning to B1, the Transglycosylation rate was determined as 83.3%.
Molecule B2 showed a Transglycosylation rate of 27.4%.
The molecule B3 showed a Transglycosylation rate of 97.4%.
For the molecule B4, the Transglycosylation rate was found to be 92.7%.
B5: the Transglycosylation rate amounted to 99.1%.
Turning to B6, the Transglycosylation rate amounted to 99.0%.

Staying with this test, now noted: 6 h; donor [N3-PEG(3)]-MSG1(9)-Ox (8 eq.), enzyme 1.25 μg, 28° C., pH 7.5.
The molecule B1 registered a Transglycosylation rate of 96.1%.
B2 had a Transglycosylation rate of 44.4%.
In turn, B3 came in with a Transglycosylation rate of 97.5%.
In turn, B4 gave a Transglycosylation rate of 98.7%.
In turn, B5 showed a Transglycosylation rate of 99.6%.
Same read-out and setting: the value for B6 was 99.6%.

Staying with this test, now noted: 24 h; donor [N3-PEG(3)]-MSG1(9)-Ox (8 eq.), enzyme 1.25 μg, 28° C., pH 7.5.
For the molecule B1, the Transglycosylation rate amounted to 99.6%.
B2 returned a Transglycosylation rate of 99.3%.
On to B3, for which the Transglycosylation rate is 75.0%.
Regarding B4, the Transglycosylation rate worked out at 99.6%.
In turn, B5 registered a Transglycosylation rate of 98.8%.
On to B6, for which the Transglycosylation rate is recorded as 98.9%.

The next test deals with (Fucα1,6)GlcNAc-mAb2. In words: Transglycosylation activity with SGP as donor, in combination with Endo-M N175Q. Particulars: 2 h; donor SGP (50 eq.), Endo-M N175Q 2.5 mU, Endo-Si enzyme 10 μg, 23° C., pH 7.5. The format is biochemical. The protocol: Transglycosylation activity was evaluated as follows. A 50 mM (sodium) phosphate buffer (pH 7.5) solution (17 μL) containing (Fucα1,6)GlcNAc-mAb2 (0.5 mg), SGP (0.485 mg (50 eq.)), Endo-M N175Q (manufactured by Tokyo Kasei Kogyo Co., Ltd.) (2.5 mU) and each of various Endo-Si mutant enzymes (10 μg), was prepared and incubated at 23° C. A sample was taken from each of the reaction solutions at 2, 4, 6, 24, and 48 hours after initiation of the reaction and analyzed for protein by a fully automated electrophoresis system as mentioned above. In the chromatogram obtained, an unreacted product and a transglycosylated molecule, mAb2-(SG)2 are confirmed as discrete peaks. The transglycosylation rates were obtained based on the peak area ratio between the unreacted product and the transglycosylated molecule in accordance with the following expression.
Similarly, transglycosylation rates of individual Endo-Si mutant enzymes at each time period of a reaction were calculated (Table 6).
For the molecule B1, the Transglycosylation rate amounted to 4.9%.
For B2, the Transglycosylation rate is 2.6%.
Turning to B3, the Transglycosylation rate came to 12.8%.
On the same count and under the same terms, the figure for B4 is 3.1%; for B5 it is 15.9%; for B6 it is 8.9%.

The same test, now with this note: 4 h; donor SGP (50 eq.), Endo-M N175Q 2.5 mU, Endo-Si enzyme 10 μg, 23° C., pH 7.5.
Turning to B1, the Transglycosylation rate is listed as 10.6%.
The same measure, in the same setting: the value for B2 was 5.6%.
In the case of B3, the Transglycosylation rate came out at 27.9%.
For B4, the Transglycosylation rate turned out to be 6.4%.
B5: the Transglycosylation rate turned out to be 35.6%.
On the same count and under the same terms, the value for B6 was 20.0%.

The same test, now with this note: 6 h; donor SGP (50 eq.), Endo-M N175Q 2.5 mU, Endo-Si enzyme 10 μg, 23° C., pH 7.5.
For B1, the Transglycosylation rate came out at 21.4%.
Consider B2, for which the Transglycosylation rate worked out at 8.2%.
In the case of B3, the Transglycosylation rate is listed as 40.5%.
Turning to B4, the Transglycosylation rate is reported as 13.8%.
Regarding B5, the Transglycosylation rate came to 52.3%.
As for B6, the Transglycosylation rate came out at 30.3%.

The test is the same for the next values; noted with them: 24 h; donor SGP (50 eq.), Endo-M N175Q 2.5 mU, Endo-Si enzyme 10 μg, 23° C., pH 7.5.
Take B1: the Transglycosylation rate was determined as 71.5%.
The same measure, in the same setting: the figure for B2 is 48.6%; for B3 it is 96.5%; for B4 it is 50.7%.
On to B5, for which the Transglycosylation rate is reported as 98.1%.
Take B6: the Transglycosylation rate came to 94.4%.

Still in this test, the particulars now being: 48 h; donor SGP (50 eq.), Endo-M N175Q 2.5 mU, Endo-Si enzyme 10 μg, 23° C., pH 7.5.
Consider B1, for which the Transglycosylation rate worked out at 92.5%.
As to B2, the Transglycosylation rate turned out to be 76.3%.
On the same count and under the same terms, the value for B3 was 96.8%; that for B4 was 77.5%; that for B5 was 98.5%.
Take B6: the Transglycosylation rate is reported as 98.5%.

Values taken from US20240336907A1, “NOVEL ENDO-ß-N-ACETYLGLUCOSAMINIDASE” (priority 2020, published 2024).
